Experimental data taken from patent US20240117066A1 (Memorial Sloan Kettering, published 2024).

Molecular target: T1, recombinant human uPAR protein (Leu23-Arg303) with a C-terminal 6-his tag (human, UniProt Q03405 23-303)
T1 construct: also called CD87
Assay: Biacore (SPR), single cycle kinetics
Procedure: Six clones 8B1, 11E10, 17C9, 19D7, 6C8, and 14C5 were produced. Next, the binding affinities KD of 8B1, 11E10, 17C9, 19D7, 6C8, and 14C5 antibodies were assessed. The KD values were calculated using the Biacore single cycle kinetics analysis.

T1 sequence (Q03405 other isoform, or with tags, fused parts or gaps): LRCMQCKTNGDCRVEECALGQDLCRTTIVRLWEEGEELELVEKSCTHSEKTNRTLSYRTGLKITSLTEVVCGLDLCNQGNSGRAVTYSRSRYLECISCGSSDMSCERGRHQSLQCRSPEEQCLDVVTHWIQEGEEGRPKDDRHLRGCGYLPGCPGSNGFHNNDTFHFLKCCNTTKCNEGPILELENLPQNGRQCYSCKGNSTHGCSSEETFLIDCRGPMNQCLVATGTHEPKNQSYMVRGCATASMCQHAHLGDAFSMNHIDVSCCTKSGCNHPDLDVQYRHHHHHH

Binder	Kd [nM]
14C5 antibody (antibody, V domains shown) VH: QVQLKESGPGLVAPSQSLSITCTVSGFSLTSYGVHWVRQPPGKGLEWLGVLWAGGSTDYNSALMSRLSISKDNSKSQVFLKMNSLQTDDTAMYYCARGGLRQVFAYWGQGTLVTVSA VL: DVLMTQTPLSLPVSLGDQASISCRSSQSIVYSNGNTYLEWYLQKPGQSPKLLIYKVSNRFSGVPDRFSGSGSGTDFTLKISRVEAEDLGVYYCFQGSHVPYTFGGGTKLEMK	42.4
17C9 antibody (antibody, V domains shown) VH: EVQLVESGGGLVKPGGSLKLSCAASGFTFSSYAMSWVRQSPEKRLEWVAEISSGGTYTYYPDTVTGRFTISRDNAKNTLYLEMSSLRSEDTAMYYCARDDGFYAWFGYWGQGTLVTVSA VL: not shown	18.6
11E10 antibody (antibody, V domains shown) VH: QVQLQQSGPELVKPGASVKMSCKTSGYTFTDYVITWVKQRTGQGLEWIGEIYPRSGNTYYNAKFRGKATLTADKSSNTAYMQLSSLTSEDSAVYFCARGGYYDFDFFAMDYWGQGTSVTVSS VL: DIVMTQAAPSVPVTPGESVSISCRSSKSLLHSNGNTYLYWFLQRPGQSPQLLIYRMSNLASGVPDRFSGSGSGTAFTLRISRVEAEDVGVYYCMQHLEYPYTFGGGTKLEIK	95.2

The next binders have a lower Kd than those just listed; values first:

Kd [nM]	Binder
6.61	6C8 antibody (antibody, V domains shown) VH: EVQLVESGGGLVQPGGSLKISCAASGFTFTNYGMSWVRQTPDKRLELVATTNSNGGATYYPDSVKGRFTISRDNAKNTLYLQMSSLKSEDTAMYFCTRDRDYYGGSMDYWGQGTSVTVSS VL: DIVMSQSPSSLAVSVGERVSMSCKSSQSLLYSSDQKNYLAWYQQKPGQSPELLIYWASTRESGVPDRFTGSGSGTDFTLTISSVKAEDLAIYYCQQYYSYPFTFGSGTKLEIK
3.48	8B1 antibody (antibody, V domains shown) VH: QIQLVQSGPELKKPGETVKISCKASGYTFTNYGMNWVKQAPGKGLKWMGWINTNTGEPTYAEEFKGRFAFSLETSASTAYLQINNLKNEDTATYFCGDYEFAYWGQGTLVTVSA VL: DIQMTQSPASLSVSVGETVTITCRASENIYSNLAWYQQKQGKSPQLLVYAATNLADGVPSRFSGSGSGTQYSLKINSLQSEDFGSYYCQHFWGTPWTFGGGTKLEIK
